Four molecules from US20150267232A1, “IN VIVO AND IN VITRO CARBENE INSERTION AND NITRENE TRANSFER REACTIONS CATALYZED BY HEME ENZYMES” (California Institute of Technology, priority 2012, published 2015) can be followed below.

A short description of the experiment: P450BM3 compilation plate screen (GC, cyclopropane peaks). It counts as biochemical. Conditions: P450BM3 variants; for ee (cis): (R,S)-(S,R), chiral β-CDX GC; for de: diastereomeric excess = ([cis] − [trans])/([cis] + [trans]); for Absolute activity: sum of the area of the cyclopropane peaks over the area of the internal standard.

B1: 9-10A TS: V78A, P142S, T175I, A184V, S226R, H236Q, E252G, A290V, L353V, I366V, E442K (protein, listed as Bacillus megaterium)
chain: TIKEMPQPKTFGELKNLPLLNTDKPVQALMKIADELGEIFKFEAPGRVTRYLSSQRLIKEACDESRFDKNLSQALKFARDFAGDGLFTSWTHEKNWKKAHNILLPSFSQQAMKGYHAMMVDIAVQLVQKWERLNADEHIEVSEDMTRLTLDTIGLCGFNYRFNSFYRDQPHPFIISMVRALDEVMNKLQRANPDDPAYDENKRQFQEDIKVMNDLVDKIIADRKARGEQSDDLLTQMLNGKDPETGEPLDDGNIRYQIITFLIAGHETTSGLLSFALYFLVKNPHVLQKVAEEAARVLVDPVPSYKQVKQLKYVGMVLNEALRLWPTAPAFSLYAKEDTVLGGEYPLEKGDEVMVLIPQLHRDKTVWGDDVEEFRPERFENPSAIPQHAFKPFGNGQRACIGQQFALHEATLVLGMMLKHFDFEDHTNYELDIKETLTLKPKGFVVKAKSKKIPLGGIPSPSTEQSAKKVRKKAENAHNTPLLVLYGSNMGTAEGTARDLADIAMSKGFAPQVATLDSHAGNLPREGAVLIVTASYNGHPPDNAKQFVDWLDQASADEVKGVRYSVFGCGDKNWATTYQKVPAFIDETLAAKGAENIADRGEADASDDFEGTYEEWREHMWSDVAAYFNLDIENSEDNKSTLSLQFVDSAADMPLAKMHGAFSTNVVASKELQQPGSARSTRHLEIELPKEASYQEGDHLGVIPRNYEGIVNRVTARFGLDASQQIRLEAEEEKLAHLPLAKTVSVEELLQYVELQDPVTRTQLRAMAAKTVCPPHKVELEALLEKQAYKEQVLAKRLTMLELLEKYPACEMKFSEFIALLPSIRPRYYSISSSPRVDEKQASITVSVVSGEAWSGYGEYKGIASNYLAELQEGDTITCFISTPQSEFTLPKDPETPLIMVGPGTGVAPFRGFVQARKQLKEQGQSLGEAHLYFGCRSPHEDYLYQEELENAQSEGIITLHTAFSRMPNQPKTYVQHVMEQDGKKLIELLDQGAHFYICGDGSQMAPAVEATLMKSYADVHQVSEADARLWLQQLEEKGRYAKDVWAG
modifications: cytochrome P450NADPH-P-450 reductase precursor, cytochrome P450 (BM3), CYP102A1
notes: V78A, P142S, T175I, A184V, S226R, H236Q, E252G, A290V, L353V, I366V, E442K
Take B1: the “ee (cis)” value is recorded as −54, the de is −75 and the Absolute activity was found to be 0.00192.

B2: 9-10A TS F87A: 9-10A TS + F87A (protein, listed as Bacillus megaterium)
chain: TIKEMPQPKTFGELKNLPLLNTDKPVQALMKIADELGEIFKFEAPGRVTRYLSSQRLIKEACDESRFDKNLSQALKFARDFAGDGLATSWTHEKNWKKAHNILLPSFSQQAMKGYHAMMVDIAVQLVQKWERLNADEHIEVSEDMTRLTLDTIGLCGFNYRFNSFYRDQPHPFIISMVRALDEVMNKLQRANPDDPAYDENKRQFQEDIKVMNDLVDKIIADRKARGEQSDDLLTQMLNGKDPETGEPLDDGNIRYQIITFLIAGHETTSGLLSFALYFLVKNPHVLQKVAEEAARVLVDPVPSYKQVKQLKYVGMVLNEALRLWPTAPAFSLYAKEDTVLGGEYPLEKGDEVMVLIPQLHRDKTVWGDDVEEFRPERFENPSAIPQHAFKPFGNGQRACIGQQFALHEATLVLGMMLKHFDFEDHTNYELDIKETLTLKPKGFVVKAKSKKIPLGGIPSPSTEQSAKKVRKKAENAHNTPLLVLYGSNMGTAEGTARDLADIAMSKGFAPQVATLDSHAGNLPREGAVLIVTASYNGHPPDNAKQFVDWLDQASADEVKGVRYSVFGCGDKNWATTYQKVPAFIDETLAAKGAENIADRGEADASDDFEGTYEEWREHMWSDVAAYFNLDIENSEDNKSTLSLQFVDSAADMPLAKMHGAFSTNVVASKELQQPGSARSTRHLEIELPKEASYQEGDHLGVIPRNYEGIVNRVTARFGLDASQQIRLEAEEEKLAHLPLAKTVSVEELLQYVELQDPVTRTQLRAMAAKTVCPPHKVELEALLEKQAYKEQVLAKRLTMLELLEKYPACEMKFSEFIALLPSIRPRYYSISSSPRVDEKQASITVSVVSGEAWSGYGEYKGIASNYLAELQEGDTITCFISTPQSEFTLPKDPETPLIMVGPGTGVAPFRGFVQARKQLKEQGQSLGEAHLYFGCRSPHEDYLYQEELENAQSEGIITLHTAFSRMPNQPKTYVQHVMEQDGKKLIELLDQGAHFYICGDGSQMAPAVEATLMKSYADVHQVSEADARLWLQQLEEKGRYAKDVWAG
modifications: cytochrome P450NADPH-P-450 reductase precursor, cytochrome P450 (BM3), CYP102A1
In the case of B2, the “ee (cis)” value was 5, the de is recorded as −60 and the Absolute activity was found to be 0.001546.

B3: CYP102A3: CYP102A3, related P450 from Bacillus subtilis (protein, UniProt O08336 1-1054, looked up)
Bifunctional cytochrome …: MKQASAIPQPKTYGPLKNLPHLEKEQLSQSLWRIADELGPIFRFDFPGVSSVFVSGHNLVAEVCDEKRFDKNLGKGLQKVREFGGDGLFTSWTHEPNWQKAHRILLPSFSQKAMKGYHSMMLDIATQLIQKWSRLNPNEEIDVADDMTRLTLDTIGLCGFNYRFNSFYRDSQHPFITSMLRALKEAMNQSKRLGLQDKMMVKTKLQFQKDIEVMNSLVDRMIAERKANPDENIKDLLSLMLYAKDPVTGETLDDENIRYQIITFLIAGHETTSGLLSFAIYCLLTHPEKLKKAQEEADRVLTDDTPEYKQIQQLKYIRMVLNETLRLYPTAPAFSLYAKEDTVLGGEYPISKGQPVTVLIPKLHRDQNAWGPDAEDFRPERFEDPSSIPHHAYKPFGNGQRACIGMQFALQEATMVLGLVLKHFELINHTGYELKIKEALTIKPDDFKITVKPRKTAAINVQRKEQADIKAETKPKETKPKHGTPLLVLFGSNLGTAEGIAGELAAQGRQMGFTAETAPLDDYIGKLPEEGAVVIVTASYNGAPPDNAAGFVEWLKELEEGQLKGVSYAVFGCGNRSWASTYQRIPRLIDDMMKAKGASRLTAIGEGDAADDFESHRESWENRFWKETMDAFDINEIAQKEDRPSLSITFLSEATETPVAKAYGAFEGIVLENRELQTAASTRSTRHIELEIPAGKTYKEGDHIGILPKNSRELVQRVLSRFGLQSNHVIKVSGSAHMAHLPMDRPIKVVDLLSSYVELQEPASRLQLRELASYTVCPPHQKELEQLVSDDGIYKEQVLAKRLTMLDFLEDYPACEMPFERFLALLPSLKPRYYSISSSPKVHANIVSMTVGVVKASAWSGRGEYRGVASNYLAELNTGDAAACFIRTPQSGFQMPNDPETPMIMVGPGTGIAPFRGFIQARSVLKKEGSTLGEALLYFGCRRPDHDDLYREELDQAEQDGLVTIRRCYSRVENEPKGYVQHLLKQDTQKLMTLIEKGAHIYVCGDGSQMAPDVERTLRLAYEAEKAASQEESAVWLQKLQDQRRYVKDVWTGM
For B3, the “ee (cis)” value is listed as −8, the de was −74 and the Absolute activity amounted to 0.004053.

B4: WT A328V: P450BM3 variant: A328V (protein, listed as Bacillus megaterium)
chain: TIKEMPQPKTFGELKNLPLLNTDKPVQALMKIADELGEIFKFEAPGRVTRYLSSQRLIKEACDESRFDKNLSQALKFVRDFAGDGLFTSWTHEKNWKKAHNILLPSFSQQAMKGYHAMMVDIAVQLVQKWERLNADEHIEVPEDMTRLTLDTIGLCGFNYRFNSFYRDQPHPFITSMVRALDEAMNKLQRANPDDPAYDENKRQFQEDIKVMNDLVDKIIADRKASGEQSDDLLTHMLNGKDPETGEPLDDENIRYQIITFLIAGHETTSGLLSFALYFLVKNPHVLQKAAEEAARVLVDPVPSYKQVKQLKYVGMVLNEALRLWPTVPAFSLYAKEDTVLGGEYPLEKGDELMVLIPQLHRDKTIWGDDVEEFRPERFENPSAIPQHAFKPFGNGQRACIGQQFALHEATLVLGMMLKHFDFEDHTNYELDIKETLTLKPEGFVVKAKSKKIPLGGIPSPSTEQSAKKVRKKAENAHNTPLLVLYGSNMGTAEGTARDLADIAMSKGFAPQVATLDSHAGNLPREGAVLIVTASYNGHPPDNAKQFVDWLDQASADEVKGVRYSVFGCGDKNWATTYQKVPAFIDETLAAKGAENIADRGEADASDDFEGTYEEWREHMWSDVAAYFNLDIENSEDNKSTLSLQFVDSAADMPLAKMHGAFSTNVVASKELQQPGSARSTRHLEIELPKEASYQEGDHLGVIPRNYEGIVNRVTARFGLDASQQIRLEAEEEKLAHLPLAKTVSVEELLQYVELQDPVTRTQLRAMAAKTVCPPHKVELEALLEKQAYKEQVLAKRLTMLELLEKYPACEMKFSEFIALLPSIRPRYYSISSSPRVDEKQASITVSVVSGEAWSGYGEYKGIASNYLAELQEGDTITCFISTPQSEFTLPKDPETPLIMVGPGTGVAPFRGFVQARKQLKEQGQSLGEAHLYFGCRSPHEDYLYQEELENAQSEGIITLHTAFSRMPNQPKTYVQHVMEQDGKKLIELLDQGAHFYICGDGSQMAPAVEATLMKSYADVHQVSEADARLWLQQLEEKGRYAKDVWAG
modifications: cytochrome P450NADPH-P-450 reductase precursor, cytochrome P450 (BM3), CYP102A1
With B4, the de is listed as −100 and the Absolute activity was 0.00083.
